The values that follow come from paper PMC3828642, “1-Aminocyclopropane-1-carboxylic acid oxidase reaction mechanism and putative post-translational activities of the ACCO protein” (AoB Plants, 2013).

Substrate in this data set: NC1(C(=O)O)CC1
Briefly: purified protein. The following applies: Fe(II), ascorbate, bicarbonate active-site Fe(II); Arg175, Arg244 and Ser246 affect ACC binding.

B1: 1-aminocyclopropane-1-carboxylic acid oxidase (ACCO1) (Malus domestica) (protein)
chain: MATFPVVDLSLVNGEERAATLEKINDACENWGFFELVNHGMSTELLDTVEKMTKDHYKKTMEQRFKEMVAAKGLDDVQSEIHDLDWESTFFLRHLPSSNISEIPDLEEEYRKTMKEFAVELEKLAEKLLDLLCENLGLEKGYLKKVFYGSKGPNFGTKVSNYPPCPKPDLIKGLRAHSDAGGIILLFQDDKVSGLQLLKDGEWVDVPPMHHSIVINLGDQIEVITNGKYKSVMHRVIAQSDGTRMSIASFYNPGNDSFISPAPAVLEKKTEDAPTYPKFVFDDYMKLYSGLKFQAKEPRFEAMKAKESTPVATA
One may read the Km as the concentration of substrate that gives half-maximal velocity. Turning to B1, the Michaelis constant (Km) was 51 µM.
